Target: D4 self-association region of P6 (amino acids 414-520), in pEG202 (Cauliflower mosaic virus isolate CM1841)
Test: two-hybrid

Substance: Full-length P6 with the D3b mutation V324A, in pJG4-5 (natural protein)
- fold less β-galactosidase activity than the wild type: 9 fold

From paper PMC4323857
